The text below walks through data of patent publication US20220249640A1 (published 2022).

Assay [1] has as its target T1, PD-1 (soluble, biotinylated, on sensors or coated on plates) (human, UniProt Q15116 25-167, biotinylated (avi tag, Avidity's biotinylation kit) in the Octet assays). As to the kind of experiment: ELISA; constant antigen coating. Background: In an ELISA, binding on a coated surface is turned into a signal by an enzyme label.
Assay [2] concerns the target T1, PD-1 (soluble, biotinylated, on sensors …). As to the kind of experiment: ELISA; variable antigen coating.

The EC50 is the concentration at which the effect is half-maximal. A low value points to an effect from little substance.

T1 sequence (Q15116 25-167): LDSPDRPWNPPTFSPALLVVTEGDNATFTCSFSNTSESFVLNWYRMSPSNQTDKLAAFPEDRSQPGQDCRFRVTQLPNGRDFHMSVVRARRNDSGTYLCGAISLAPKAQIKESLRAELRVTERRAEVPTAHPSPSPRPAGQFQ

B1: P4-B3 IgG1 wild type monomer (antibody, V domains shown)
VH: QVQLVQSGGGLVQPGRSLRLSCAASGFTFDDYAMHWVRQAPGKGLEWVSGISWNSGSIGYADSVKGRFTVSRDNAKNSLYLQMNSLRAEDTAVYYCASDYGDKYYYYGMDVWGKGTTVTVSS
VL: QPGLTQPPSASGTPGQRVTISCSGSSSNIGSNTVNWYQQFPGKAPKLLIFNDNQRPSGVPDRFSASKSGTSASLAISGLQSEDEADYYCAAWDGGLNGRGVFGGGTKLTVLG
With B1, the 50% effective concentration (EC50) in assay [1] worked out at 0.0407 µg/mL; in assay [2], 0.514 µg/mL.
